In publication doi:10.1101/2021.11.27.470173:
Read-outs that look alike come from different tables or passages of the source.

Tests used:
Assay in all cases: SEC-MALS
[1] = biological target: cyanide dihydratase CynD from Bacillus safensis PER-URP-08 (Bacillus safensis PER-URP-08) (UniProt P0DXY3)
[2] = biological target: cyanide dihydratase CynD from Bacillus safensis PER-URP-08 (Bacillus safensis PER-URP-08) (UniProt P0DXY3); remark: listed apart in the source
[3] = biological target: cyanide dihydratase CynD from Bacillus safensis PER-URP-08 (Bacillus safensis PER-URP-08) (UniProt P0DXY3); remark: listed apart in the source

Substance “cyanide dihydratase CynD from Bacillus safensis PER-URP-08 (from UniProt P0DXY3 1-330) (enzyme)” has a stoichiometry N [1] of 3 to 5 mer, a stoichiometry N [2] of 24 to 48 mer and a stoichiometry N [3] of 4 to 6 mer.
